# Patent US20210260113A1, “DEVICES, METHODS, COMPOSITIONS AND SYSTEMS FOR THE TREATMENT OF AGING AND AGE-RELATED DISORDERS” (Gero LLC, priority 2018, published 2021)
# No end group written: not given here.
# Target: T1, NBL1 (AA 1-180) protein (FcTag) (Homo sapiens, UniProt P41271)
# T1 construct: NBL1 (AA 1-180) protein (FcTag); purchased SinoBiological (via AntibodiesOnline) BIN2002229
# T1 sequence (P41271 17-180): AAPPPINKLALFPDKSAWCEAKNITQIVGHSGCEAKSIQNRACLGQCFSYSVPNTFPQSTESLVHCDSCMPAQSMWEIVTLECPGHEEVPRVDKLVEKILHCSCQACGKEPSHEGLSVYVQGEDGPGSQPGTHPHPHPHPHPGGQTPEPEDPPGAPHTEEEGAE
# Experiment: PEPperCHIP Discovery Microarray screening of cyclic peptide binders
# Assay type: binding
# Conditions: cyclic peptides of common structure S1 with the given SEQ; NBL1 at 10 μg/ml
# Description: The peptide target binder discovery screening was done with PEPperCHIP® Discovery Microarrays with 36,040 random peptides with alength of 12 amino acids printed in duplicate (72,080 peptide spots). After peptide synthesis, all peptides were cyclized via a thioetherlinkage between a C-terminal cysteine side chain and an appropriately modified N-terminus. The PEPperCHIP® Discovery Microarrays contained additional myc(EQKLISEEDL, 415 spots) and HA (YPYDVPDYAG, 420 spots) control peptides as specified in the peptide maps of the microarray data files.
# Samples: NBL1 (AA 1-180) protein (FcTag) (SinoBiological, AntibodiesOnline BIN2002229) Washing Buffer: PBS, pH 7.4 with 0.005% Tween 20 (2×10 sec after each assay) Blocking Buffer: Rockland blocking buffer MB-070 (30 min before the first assay) Incubation Buffer: Washing buffer with 1% blocking buffer Assay Conditions: Protein concentrations of […] in incubation buffer; incubation for 16 h at 4° C. and shaking at 140 rpm Secondary Antibodies: Mouse natriuretic peptides B DyLight800 antibody (1:5000; Hytest, AntibodiesOnline product ABIN263370), goat anti-human IgG (Fc) DyLight680 (1:5000); 45 min staining in incubation buffer at RT Control Antibodies: Mouse monoclonal anti-HA (12CA5) DyLight680(1:2000), mouse monoclonal anti-HA (12CA5) DyLight800 (1:2000); 45 min staining in incubation buffer at RT Scanner: LI-COR Odyssey Imaging System; scanning offset 0.65 mm, resolution 21 μm, scanning intensities of 7/7 (red=700 nm/green=800 nm)
# After 15 min pre-swelling in washing buffer and 30 min in blocking buffer, two PEPperCHIP® Discovery Microarrays were initially incubated with the secondary antibodies mouse natriuretic peptides B DyLight800 (1:5000) and goat anti-human IgG (Fc) DyLight680 (1:5000) as well as with the control antibodies in incubation buffer to analyze background interactions with the 36,040 different random cyclic constrained peptides of the microarrays. Subsequent incubation of the PEPperCHIP® Discovery Microarrays was done with target proteins NBL1 at concentrations of 1 μg/ml and 10 μg/ml in incubation buffer and followed by staining with the secondary antibodies as well as read-out with a LI-COR Odyssey Imaging System at scanning intensity of 7/7 (red/green). The additional HA peptides framing the peptide microarrays were simultaneously stained as internal quality control to confirm the assay quality and the peptide microarray integrity.
# A software algorithm breaks down fluorescence intensities of each spot into raw, foreground and background signal, and calculates averaged median foreground intensities and spot-to-spot deviations of spot duplicates. We tolerated a maximum spot-to-spot deviation of 40%, otherwise the corresponding intensity value was zeroed. Based on averaged median foreground intensities, an intensity map was generated and interactions in the peptide map highlighted by an intensity color code with red(NBL1 for high and white for low spot intensities.
# To identify the top interactions of the target proteins, the averaged and corrected intensity values were sorted by decreasing spot intensities. We further plotted averaged spot intensities of all assays against the microarray content from left on top to right on bottom of the chip to visualize overall spot intensities and signal-to-noise ratios. For a better data overview, the baselines of the intensity plots were leveled and main responses annotated next to the corresponding signal. The intensity plots were correlated with peptide and intensity maps as well as with visual inspection of the microarray scans to identify peptides that interacted with target proteins NBL1.
row,Sequence,"intensity values, 10 μg/ml"
1,ARQSHRRPGGKR,338
2,FWFHLKYWAWRR,215
3,IRHSDRVDRYSR,172
4,IYFYSCSVPGMY,233
5,KQRSKRMASMKLF,249
6,KVALFLANRLFR,181
7,KVRALRDISYRR,190.5
8,LRLFKISRNFPR,177
9,LRNVVFIWHIRYR,213
10,LVMWHRHFALRR,185
11,NKQMNHPPRRHR,210
12,RHGTRYHSRLFR,179.5
13,RKKDPRAYDRFR,294.5
14,RRRAQPSPMRHK,187
15,RYNQSIRVIIGR,234
16,SRHNYSHWFYRR,198
17,TLRCHRHRFR,489
18,VHQCRASRYPRI,235.5
19,"WVARDHVNHNRR (not fully specified (C-terminus, bridges); also: cyclized via thioether between C-terminal Cys side chain and modified N-terminus)",189
20,"WVRIRLSRRQFR (not fully specified (C-terminus, bridges); also: cyclized via thioether between C-terminal Cys side chain and modified N-terminus)",235
21,"YHATGVRWRFLR (not fully specified (C-terminus, bridges); also: cyclized via thioether between C-terminal Cys side chain and modified N-terminus)",445
22,"YHHKPQRQNRGR (not fully specified (C-terminus, bridges); also: cyclized via thioether between C-terminal Cys side chain and modified N-terminus)",283
23,"YYRIHHQRRGRS (not fully specified (C-terminus, bridges); also: cyclized via thioether between C-terminal Cys side chain and modified N-terminus)",452

# Now from value to sequence:
row,"intensity values, 10 μg/ml",Sequence
1,317.5,ARMRQTHRPVYR
2,290,CHCIHFTHRRLR
3,216,DFKQLLLPGRKR
4,554,DMAARCVCKRRR
5,328,DSRKFFYRGNRR
6,448,FDWRISQRMRRR
7,174.5,FPMCQKVPFVRR
8,195,FPQSRGRGKLWR
9,214,GDRGCFFIVTFI
10,192,GRHLPEASKRFR
11,176.5,HTWPYALTQKRR
12,193.5,LFENCANVCIGL
13,212.5,LGPAACFTSEPV
14,251.5,MFFRPFKGHGRR
15,185,NCYHMVYYLIIL
16,301.5,RFNHVTCRTFKR
17,186,RFTYSPTQRAYR
18,205,RPRHVFKLYGRL
19,182.5,RQNANKAWQKRR
20,236.5,SQKMLRRGGMIRK
21,175,TYDNYIRYFRIR
22,189,VDFGGGWVCFCP
23,185,"YGSHYYWNHLRR (not fully specified (C-terminus, bridges); also: cyclized via thioether between C-terminal Cys side chain and modified N-terminus)"
24,197,"YMPSNCCWWWRR (not fully specified (C-terminus, bridges); also: cyclized via thioether between C-terminal Cys side chain and modified N-terminus)"
25,200.5,"YWHKKLYYMRYR (not fully specified (C-terminus, bridges); also: cyclized via thioether between C-terminal Cys side chain and modified N-terminus)"
26,323,"YWTKGLLWRNRR (not fully specified (C-terminus, bridges); also: cyclized via thioether between C-terminal Cys side chain and modified N-terminus)"
